Target: T1, human IL2Rβ Fc fusion protein (human) (UniProt P14784)
T1 sequence (looked up): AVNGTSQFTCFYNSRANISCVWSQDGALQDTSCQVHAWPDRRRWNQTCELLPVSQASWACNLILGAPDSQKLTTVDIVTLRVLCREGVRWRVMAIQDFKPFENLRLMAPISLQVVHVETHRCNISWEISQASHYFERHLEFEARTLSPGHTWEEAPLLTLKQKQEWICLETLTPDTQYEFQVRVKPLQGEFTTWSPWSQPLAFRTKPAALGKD
Experiment: ELISA, single concentration, anti-flag detection, E. coli-produced clone

OD450 nm: 0.871 OD450
B1: EP569 (clone 2021EP22-E03), E. coli-produced (ligand)
chain: APASSSTKKTQLQLEHLLLDLQMILNGINNYKNPKLTRMLTFKFYMPKKATELKHLQCLEEELKPLEEVLNLAQSKNFHLRRKESINHMIVVFPVLKGSETTFMCEYADETATIVEFLNRWITFSQSIISTLT
